Laboratory results reported in patent publication US20160222105A1 (MacroGenics, published 2016).

How the values were obtained:
[1] = molecular target: T1, gpA33 on human cancer cells (human, UniProt Q99795 22-319); assay: cell-based or functional assay
T1 sequence (looked up): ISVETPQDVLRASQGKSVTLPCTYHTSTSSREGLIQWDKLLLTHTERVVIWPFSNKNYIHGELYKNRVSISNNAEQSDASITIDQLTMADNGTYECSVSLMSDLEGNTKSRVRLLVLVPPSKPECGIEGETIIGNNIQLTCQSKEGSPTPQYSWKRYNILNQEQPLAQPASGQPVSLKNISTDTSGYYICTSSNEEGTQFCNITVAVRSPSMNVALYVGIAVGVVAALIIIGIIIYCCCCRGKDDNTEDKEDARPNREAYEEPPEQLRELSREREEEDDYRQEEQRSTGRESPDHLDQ

[2] = molecular target: CD3 of cynomolgus monkey T cells (cynomolgus monkey, UniProt Q95LI5 22-198; Q95LI8 22-171); assay: cell-based or functional assay
Chain of CD3 of cynomolgus monkey T cells (Q95LI5 22-198 limits assumed, chain 1 of 2): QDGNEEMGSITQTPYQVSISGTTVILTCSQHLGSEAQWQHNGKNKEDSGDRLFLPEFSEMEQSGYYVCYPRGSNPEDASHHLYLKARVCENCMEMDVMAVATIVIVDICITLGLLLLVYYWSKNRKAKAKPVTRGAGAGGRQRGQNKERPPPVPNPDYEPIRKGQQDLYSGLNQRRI
Chain of CD3 of cynomolgus monkey T cells (Q95LI8 22-171 limits assumed, chain 2 of 2): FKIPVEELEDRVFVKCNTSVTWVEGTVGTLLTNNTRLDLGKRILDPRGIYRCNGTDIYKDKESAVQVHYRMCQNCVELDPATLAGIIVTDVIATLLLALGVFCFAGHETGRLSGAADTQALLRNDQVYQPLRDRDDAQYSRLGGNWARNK

human gpA33 = molecular target: T2, human gpA33 (human, UniProt Q99795 22-235, limits assumed); assay: kinetics of binding to gpA33; method not stated
T2 construct: There it is printed only as gpA33; also called A33 antigen
T2 sequence (looked up): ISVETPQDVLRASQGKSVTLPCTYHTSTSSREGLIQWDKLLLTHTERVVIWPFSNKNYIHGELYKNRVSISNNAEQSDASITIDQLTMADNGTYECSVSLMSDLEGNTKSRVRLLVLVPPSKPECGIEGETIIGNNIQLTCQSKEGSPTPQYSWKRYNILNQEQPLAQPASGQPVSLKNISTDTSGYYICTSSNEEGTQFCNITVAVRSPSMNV

B1: gpA33 × CD3 bi-specific monovalent diabody (DART-2) (bispecific antibody)
chain 1: QAVVTQEPSLTVSPGGTVTLTCRSSTGAVTTSNYANWVQQKPGQAPRGLIGGTNKRAPWTPARFSGSLLGGKAALTITGAQAEDEADYYCALWYSNLWVFGGGTKLTVLGGGGSGGGGQVQLVQSGAEVKKPGASVKVSCKASGYTFTGSWMNWVRQAPGQGLEWIGRIYPGDGETNYNGKFKDRVTITADKSTSTAYMELSSLRSEDTAVYYCARIYGNNVYFDVWGQGTTVTVSSGGCGGGEVAALEKEVAALEKEVAALEKEVAALEK
chain 2: DIQLTQSPSFLSASVGDRVTITCSARSSISFMYWYQQKPGKAPKLLIYDTSNLASGVPSRFSGSGSGTEFTLTISSLEAEDAATYYCQQWSSYPLTFGQGTKLEIKGGGSGGGGEVQLVESGGGLVQPGGSLRLSCAASGFTFSTYAMNWVRQAPGKGLEWVGRIRSKYNNYATYYADSVKDRFTISRDDSKNSLYLQMNSLKTEDTAVYYCVRHGNFGNSYVSWFAYWGQGTLVTVSSGGCGGGKVAALKEKVAALKEKVAALKEKVAALKE
EC50 - CTL Activity, Colo205 Target Cells, LDH Assay, Human PBMC [1]: 4.09 ng/mL | EC50 - CTL Activity, Colo205 Target Cells, Luciferase Assay, Human PBMC [1]: 2.73 ng/mL | EC50 - CTL Activity, Colo205 Target Cells, LDH Assay, Cyno PBMC [2]: 3.81 ng/mL | EC50 - CTL Activity, Colo205 Target Cells, Luciferase Assay, Cyno PBMC [2]: 1.55 ng/mL

B2: gpA33 × CD3 bi-specific monovalent diabody having an Albumin-Binding Domain (DART-2 w/ABD) (bispecific antibody)
chain 1: QAVVTQEPSLTVSPGGTVTLTCRSSTGAVTTSNYANWVQQKPGQAPRGLIGGTNKRAPWTPARFSGSLLGGKAALTITGAQAEDEADYYCALWYSNLWVFGGGTKLTVLGGGGSGGGGQVQLVQSGAEVKKPGASVKVSCKASGYTFTGSWMNWVRQAPGQGLEWIGRIYPGDGETNYNGKFKDRVTITADKSTSTAYMELSSLRSEDTAVYYCARIYGNNVYFDVWGQGTTVTVSSGGCGGGEVAALEKEVAALEKEVAALEKEVAALEKGGGSLAQAKEAAIRELDKYGVSDYYKNLIDNAKSAEGVKALIDEILAALP
chain 2: DIQLTQSPSFLSASVGDRVTITCSARSSISFMYWYQQKPGKAPKLLIYDTSNLASGVPSRFSGSGSGTEFTLTISSLEAEDAATYYCQQWSSYPLTFGQGTKLEIKGGGSGGGGEVQLVESGGGLVQPGGSLRLSCAASGFTFSTYAMNWVRQAPGKGLEWVGRIRSKYNNYATYYADSVKDRFTISRDDSKNSLYLQMNSLKTEDTAVYYCVRHGNFGNSYVSWFAYWGQGTLVTVSSGGCGGGKVAALKEKVAALKEKVAALKEKVAALKE
EC50 - CTL Activity, Colo205 Target Cells, LDH Assay, Human PBMC [1]: 5.52 ng/mL | EC50 - CTL Activity, Colo205 Target Cells, Luciferase Assay, Human PBMC [1]: 3.07 ng/mL | EC50 - CTL Activity, Colo205 Target Cells, LDH Assay, Cyno PBMC [2]: 4.63 ng/mL | EC50 - CTL Activity, Colo205 Target Cells, Luciferase Assay, Cyno PBMC [2]: 1.63 ng/mL

B3: Humanized mAb 1 (antibody, V domains shown)
VH: QVQLVQSGAEVKKPGASVKVSCKASGYTFTGSWMNWVRQAPGQGLEWIGRIYPGDGETNYNGKFKDRVTITADKSTSTAYMELSSLRSEDTAVYYCARIYGNNVYFDVWGQGTTVTVSS
VL: DIQLTQSPSFLSASVGDRVTITCSARSSISFMYWYQQKPGKAPKLLIYDTSNLASGVPSRFSGSGSGTEFTLTISSLEAEDAATYYCQQWSSYPLTFGQGTKLEIK
notes: also called humanized anti-human gpA33 antibody
Kd (human gpA33): 3.4 nM

B4: Murine mAb 1 (antibody, V domains shown)
VH: QVQLQQSGPELVKPGASVKISCKASGYTFSGSWMNWVKQRPGQGLEWIGRIYPGDGETNYNGKFKDKATLTADKSSTTAYMELSSLTSVDSAVYFCARIYGNNVYFDVWGAGTTVTVSS
VL: QIVLTQSPAIMSASPGERVTMTCSARSSISFMYWYQQKPGSSPRLLIYDTSNLASGVPVRFSGSGSGTSYSLTISRMEAEDAATYYCQQWSSYPLTFGSGTKLELK
notes: also called original murine anti-human gpA33 monoclonal antibody
Kd (human gpA33): 2.3 nM

B5: Chimeric mAb 1 (antibody, V domains shown)
VH: QVQLQQSGPELVKPGASVKISCKASGYTFSGSWMNWVKQRPGQGLEWIGRIYPGDGETNYNGKFKDKATLTADKSSTTAYMELSSLTSVDSAVYFCARIYGNNVYFDVWGAGTTVTVSS
VL: QIVLTQSPAIMSASPGERVTMTCSARSSISFMYWYQQKPGSSPRLLIYDTSNLASGVPVRFSGSGSGTSYSLTISRMEAEDAATYYCQQWSSYPLTFGSGTKLELK
notes: also called chimericized anti-human gpA33 antibody
Kd (human gpA33): 2.4 nM
